The assay deals with recombinant His-EtSERPIN1 protein (Eimeria tenella).

In the case of “recombinant His-tag GgANXA2 protein (from UniProt P17785 1-339) (natural protein)”, the adhesion rate to DF-1 cells of yeast cells displaying EtSERPIN1 that were pre-incubated with recombinant GgANXA2 protein (PBS group: 26.75%) was 44.3%.

For the origin of these results see article PMC12243203.
